Measurements: patent publication US20090118167A1, “Selective Vpac2 Receptor Peptide Agonists” (Eli Lilly and Company Patent Division, priority 2004, published 2009)
Square brackets hold non-standard residues; d marks the D form. Ends that are not written are not given here. Nle = CCCC[C@H](N)C(=O)O; Aib = CC(C)(N)C(=O)O

Legend:
human VPAC2 receptor [1] = molecular target: T1, human VPAC2 receptor (human, UniProt P41587 24-438); assay: cell-based or functional assay
T1 sequence (looked up): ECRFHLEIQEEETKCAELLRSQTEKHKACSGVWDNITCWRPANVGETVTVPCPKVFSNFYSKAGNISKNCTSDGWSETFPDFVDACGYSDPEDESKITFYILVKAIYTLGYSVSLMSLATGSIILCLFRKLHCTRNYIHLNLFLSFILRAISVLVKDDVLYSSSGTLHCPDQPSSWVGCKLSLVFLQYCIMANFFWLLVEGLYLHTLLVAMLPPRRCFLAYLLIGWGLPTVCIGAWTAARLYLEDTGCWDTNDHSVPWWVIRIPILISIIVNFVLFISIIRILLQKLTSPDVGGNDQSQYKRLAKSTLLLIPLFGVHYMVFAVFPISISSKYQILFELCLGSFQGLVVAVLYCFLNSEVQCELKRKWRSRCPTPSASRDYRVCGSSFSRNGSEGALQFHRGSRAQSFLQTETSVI

human VPAC2 receptor [2] = molecular target: T1, human VPAC2 receptor; assay: filter binding assay, human VPAC2 membranes, displacement of 125I-VIP
Procedure: The assay plate is filled with 25 μL assay buffer, 25 μL membranes (2.5 μg) suspended in assay buffer, 25 μL compound (agonist) in assay buffer, and 25 μL tracer (about 40000 cpm) in assay buffer. The filled plate is incubated for 1 hour with shaking.
The transfer from assay plate to filter plate is conducted. The blocking buffer is aspirated by vacuum filtration and washed two times with flush buffer. 90 μL is transferred from the assay plate to the filter plate. The 90 μL transferred from assay plate is aspirated and washed three times with 200 μL flush buffer. The plastic support is removed. It is dried for 1 hour at 60° C. 30 μL Microscint is added. The count is performed.

rat VPAC2 receptor = molecular target: T2, rat VPAC2 receptor (rat, UniProt P35000 23-437); assay: cell-based or functional assay
T2 sequence (looked up): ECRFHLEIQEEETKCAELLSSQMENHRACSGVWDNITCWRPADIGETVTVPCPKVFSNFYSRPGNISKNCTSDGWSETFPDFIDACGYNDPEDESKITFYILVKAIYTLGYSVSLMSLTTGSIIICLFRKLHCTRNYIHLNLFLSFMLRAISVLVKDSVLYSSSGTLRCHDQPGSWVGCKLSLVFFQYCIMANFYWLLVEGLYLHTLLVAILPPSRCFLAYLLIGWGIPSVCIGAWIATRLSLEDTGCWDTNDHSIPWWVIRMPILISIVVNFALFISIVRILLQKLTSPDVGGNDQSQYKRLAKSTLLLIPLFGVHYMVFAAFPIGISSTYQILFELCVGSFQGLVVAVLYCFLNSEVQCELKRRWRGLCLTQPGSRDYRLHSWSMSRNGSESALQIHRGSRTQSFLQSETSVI

rat VPAC1 receptor = molecular target: T3, rat VPAC1 receptor (rat, UniProt P30083 31-459); assay: cell-based or functional assay
T3 sequence (looked up): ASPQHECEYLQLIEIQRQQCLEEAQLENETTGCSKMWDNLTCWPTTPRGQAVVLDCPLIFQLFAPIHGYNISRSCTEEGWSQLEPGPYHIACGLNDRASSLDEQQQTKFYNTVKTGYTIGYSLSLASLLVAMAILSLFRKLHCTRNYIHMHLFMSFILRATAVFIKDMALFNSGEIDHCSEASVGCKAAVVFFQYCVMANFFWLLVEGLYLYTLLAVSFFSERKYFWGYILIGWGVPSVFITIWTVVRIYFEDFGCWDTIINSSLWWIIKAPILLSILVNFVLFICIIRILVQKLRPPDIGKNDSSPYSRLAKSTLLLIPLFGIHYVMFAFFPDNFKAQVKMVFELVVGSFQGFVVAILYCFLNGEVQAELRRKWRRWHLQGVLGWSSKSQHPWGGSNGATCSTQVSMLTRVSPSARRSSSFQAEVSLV

Binder: HSDAVFTENYTKL[Aib]KQ[Nle]AAKKYLNDLKKGGPSSGAPPPC (ends and bridges not checked; also: further groups not given here) [P257 (cyclic PEGylated VPAC2 receptor peptide agonist)]
- EC50 for cAMP generation, Alpha screen (human VPAC2 receptor [1]): 42.2 nM
- IC50 (human VPAC2 receptor [2]): 32.7 nM
- EC50 for cAMP generation, DiscoveRx, CHO-PO cells (rat VPAC2 receptor): 37.9 nM
- EC50 for cAMP generation, DiscoveRx, CHO-PO cells (rat VPAC1 receptor): > 1000 nM

Binder: HSDAVFTENYTKLR[Aib]Q[Nle]AAKKYLNDLK[Aib]KGGPSSGAPPPC (also: further groups not given here) [P348 (cyclic PEGylated VPAC2 receptor peptide agonist)]
- EC50 for cAMP generation, Alpha screen (human VPAC2 receptor [1]): 5.82 nM
- IC50 (human VPAC2 receptor [2]): 3.54 nM
- EC50 for cAMP generation, DiscoveRx, CHO-PO cells (rat VPAC2 receptor): 3.26 nM
- EC50 for cAMP generation, DiscoveRx, CHO-PO cells (rat VPAC1 receptor): 36.9 nM
